The target in test [1] is human IL-17A (human) (UniProt Q16552). Briefly: cell-based or functional assay.
Test [2] has the same target. The test can be described thus: SPR (Biacore T200), direct setup: IL-17A amine-coupled to CM5 chip, scFv as analyte. (In general: Surface plasmon resonance follows binding to a sensor surface in real time, without labels.)
The target is the same in test [3]. The test can be described thus: IL-17A/IL-17RA competitive ELISA: biotinylated hIL-17A preincubated with scFv, binding to coated hIL-17RA.
Test [4] shares this target. The test can be described thus: SPR (Biacore T200), capture setup: biotinylated human IL-17A captured with Biotin-CAPture kit, scFv as analyte.
Test [5] shares this target. Briefly: IL-17A/IL-17RA competitive ELISA: biotinylated hIL-17A preincubated with scFv, binding to coated hIL-17RA; reference secukinumab.

Substitutions are numbered along the chain they refer to.

For orientation: Kd means a measure of binding affinity in units of concentration. Higher therefore signals a looser complex. As a reminder, the koff is a measure of how fast the partners let go of each other. A word on the kon: it is a measure of how fast the partners come together. One may read the IC50 as the point on the concentration scale where inhibition reaches its midpoint. High values mean weaker potency in that assay, low ones greater potency in that assay.

B1: PRO592 (scFv)
scFv: DIQMTQSPSSLSASVGDRVTITCQASESIYRYLSWYQQKPGKAPKLLIYLASTLTSGVPSRFSGSGSGTDFTLTISSLQPEDFATYYCQSNFGTASTTYYNTFGGGTKLTVLGGGGGSGGGGSGGGGSGGGGSEVQLVESGGGLVQPGGSLTLSCAASGFSFSGFYYMCWVRQAPGKGLEWIGCIDTGDGTTYYASWAKGRFTISRDNSKNTVYLQMNSLRAEDTAVYYCARDAAYGGYAYPAHGMDLWGPGTLVTVSS
Regarding B1, in the test with human IL-17A (human) [1], the Neutralization of IL17A in HT-29 assay, rel. IC50* (IC50, secukinumab/IC50, Test Sample) is 196; the Potency in HT-29 assay, IC50 [ng/mL] was 0.13 ng/mL; the Potency in HT-29 assay, rel. IC50* (IC50, secukinumab/IC50, Test Sample) was 196. In addition, in the test with human IL-17A (human) [2], the Kd is 0.0376 nM, the koff amounted to 4.07e-05 s⁻¹ and the kon came to 1.08e+06 M⁻¹ s⁻¹. For the same molecule, the 50% inhibitory concentration (IC50) in the test with human IL-17A (human) [3] was found to be 0.9 ng/mL. In the test with human IL-17A (human) [4], this molecule showed a Kd of 0.367 nM, a dissociation rate constant (koff) of 0.000142 s⁻¹ and a kon of 387000 M⁻¹ s⁻¹. In the test with human IL-17A (human) [5], this molecule yielded a rel. IC50 (IC50, secukinumab/IC50, Test Sample) of 40.9.

B2: PRO571 (scFv)
scFv: B1 scFv with T152R, P251Q
In the test with human IL-17A (human) [1], B2 had a Neutralization of IL17A in HT-29 assay, rel. IC50* (IC50, secukinumab/IC50, Test Sample) of 191; a Potency in HT-29 assay, IC50 [ng/mL] of 0.1 ng/mL; a Potency in HT-29 assay, rel. IC50* (IC50, secukinumab/IC50, Test Sample) of 191. Also, in the test with human IL-17A (human) [2], the dissociation constant Kd is 0.0403 nM, the koff amounted to 4.55e-05 s⁻¹ and the kon is 1.13e+06 M⁻¹ s⁻¹. Also, in the test with human IL-17A (human) [3], the half-maximal inhibitory concentration (IC50) turned out to be 1.8 ng/mL. In the test with human IL-17A (human) [4], this molecule displayed a dissociation constant (Kd) of 0.119 nM, a koff of 0.000144 s⁻¹ and a kon of 1.21e+06 M⁻¹ s⁻¹. In addition, the rel. IC50 (IC50, secukinumab/IC50, Test Sample) in the test with human IL-17A (human) [5] amounted to 22.9.

Source of the values: patent EP3689907A1.
